Measured values from the supplement of paper PMC7877785.
± gives the uncertainty stated by the source.

Experiment: self-splicing fitness, log relative to wild type (ln ratio); higher = more splicing; Tetrahymena group I intron in knt gene, E. coli kanamycin selection, DiMSum; sequences stand for … in CUCUCU…GGAGGGAAAAGUUAUCAGGCAUGCACCUGGUAGCUAGUCUUUAAACCAAUAGAUUGCAUCGGUUUAAAAGGCAAGACCGUCAAAUUGCGGGAAAGGGGUCAACAGCCGUUCAGUACCAAGUCUCAGGGGAAACUUUGAGAUGGCCUUGCAAAGGGUAUGGUAAUAAGCUGACGGACAUGGUCCUAACCACGCAGCCAAGUCCUAAGUCAACAGAUCUUCUGUUGAUAUGGAUGCAGUUCACAGACUAAAUGUCGGUCGGGGAAGAUGUAUUCUUCUCAUAAGAUAUAGUCGGACCUCUCCUUAAUGGGAGCUAGCGGAUGAAGUGAUGCAACACUGGAGCCGCUGGGAACUAAUUUGUAUGCGAAAGUAUAUUGAUUAGUUUUGGAGUACUCGUGGUCG
Procedure, shortened: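 The eight P1ex-region nucleotides of an intron in the knt kanamycin-resistance gene on pET-22b(+) were all randomised and the library put into E. coli BL21(DE3). Six replicate transformations were grown overnight at 37°C or 30°C on LB agar with or without 25 μg/mL kanamycin, together with 100 μg/mL carbenicillin, 50 μM IPTG and 0.2% rhamnose. Colonies were pooled and amplicon-sequenced on an Illumina HiSeq 2500. Fitness from DiMSum is the error-weighted combination of wild-type-normalised replicate fold changes, kanamycin over none.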

## AGCCAGCAAUAUUACGUGAG
30 °C
  self-splicing fitness (ln): -2.79 ± 0.1
37 °C
  self-splicing fitness (ln): -0.902 ± 0.11

## CUACAGCAAUAUUACGGGGA
30 °C
  self-splicing fitness (ln): -3.52 ± 0.26
37 °C
  self-splicing fitness (ln): -1.79 ± 0.16

## GAAAAGCAAUAUUACGACAC
30 °C
  self-splicing fitness (ln): -0.467 ± 0.14
37 °C
  self-splicing fitness (ln): -0.346 ± 0.17

## AGGCAGCAAUAUUACGAAUG
30 °C
  self-splicing fitness (ln): -1.83 ± 0.17
37 °C
  self-splicing fitness (ln): -1.73 ± 0.2

## GUGCAGCAAUAUUACGCGCG
30 °C
  self-splicing fitness (ln): -2.41 ± 0.13
37 °C
  self-splicing fitness (ln): -1.98 ± 0.16

## UAUGAGCAAUAUUACGUAAG
37 °C
  self-splicing fitness (ln): -2.16 ± 0.19

## CUGGAGCAAUAUUACGGCCG
30 °C
  self-splicing fitness (ln): -0.999 ± 0.27

## UGAGAGCAAUAUUACGAAUA
30 °C
  self-splicing fitness (ln): -2.76 ± 0.49

## GUAGAGCAAUAUUACGAAGA
30 °C
  self-splicing fitness (ln): -3.65 ± 0.29
37 °C
  self-splicing fitness (ln): -2.22 ± 0.43

## GAUUAGCAAUAUUACGUUCC
30 °C
  self-splicing fitness (ln): -2.41 ± 0.3
37 °C
  self-splicing fitness (ln): -1.59 ± 0.19

## CCCGAGCAAUAUUACGGUCU
30 °C
  self-splicing fitness (ln): -2.83 ± 0.21
37 °C
  self-splicing fitness (ln): -1.85 ± 0.23

## ACGUAGCAAUAUUACGUUGC
30 °C
  self-splicing fitness (ln): -3.35 ± 0.24
37 °C
  self-splicing fitness (ln): -1.68 ± 0.22

## AUUAAGCAAUAUUACGACGC
30 °C
  self-splicing fitness (ln): -0.389 ± 0.11
37 °C
  self-splicing fitness (ln): 0.175 ± 0.14

## AGACAGCAAUAUUACGCGUC
30 °C
  self-splicing fitness (ln): -3.19 ± 0.29
37 °C
  self-splicing fitness (ln): -2.08 ± 0.24

## UCACAGCAAUAUUACGAUCG
30 °C
  self-splicing fitness (ln): -0.61 ± 0.08
37 °C
  self-splicing fitness (ln): -0.076 ± 0.11

## UCGCAGCAAUAUUACGGGCA
30 °C
  self-splicing fitness (ln): -1.41 ± 0.4
37 °C
  self-splicing fitness (ln): -0.479 ± 0.23

## GCGCAGCAAUAUUACGGGGU
30 °C
  self-splicing fitness (ln): -2.94 ± 0.096
37 °C
  self-splicing fitness (ln): -2.31 ± 0.13

## GCCUAGCAAUAUUACGGAAG
30 °C
  self-splicing fitness (ln): -2.96 ± 0.17
37 °C
  self-splicing fitness (ln): -1.44 ± 0.17

## AGCCAGCAAUAUUACGGUAA
30 °C
  self-splicing fitness (ln): -1.23 ± 0.069
37 °C
  self-splicing fitness (ln): -0.323 ± 0.074

## GGUCAGCAAUAUUACGUACG
30 °C
  self-splicing fitness (ln): 0.123 ± 0.08
37 °C
  self-splicing fitness (ln): -0.609 ± 0.082

## CGAUAGCAAUAUUACGCGGU
30 °C
  self-splicing fitness (ln): -3.13 ± 0.27
37 °C
  self-splicing fitness (ln): -1.94 ± 0.19

## CCUUAGCAAUAUUACGGAGG
30 °C
  self-splicing fitness (ln): -3.99 ± 0.41
37 °C
  self-splicing fitness (ln): -3.11 ± 0.37

## UACAAGCAAUAUUACGGGUU
30 °C
  self-splicing fitness (ln): -2.8 ± 0.091
37 °C
  self-splicing fitness (ln): -1.63 ± 0.097

## UGCUAGCAAUAUUACGUUCG
30 °C
  self-splicing fitness (ln): -0.807 ± 0.065
37 °C
  self-splicing fitness (ln): -0.115 ± 0.091

## CCCUAGCAAUAUUACGGGUC
30 °C
  self-splicing fitness (ln): -3.26 ± 0.14
37 °C
  self-splicing fitness (ln): -2.65 ± 0.2

## GAUCAGCAAUAUUACGUCUU
30 °C
  self-splicing fitness (ln): 0.24 ± 0.076
37 °C
  self-splicing fitness (ln): 0.0656 ± 0.085

## GGGGAGCAAUAUUACGGGGU
30 °C
  self-splicing fitness (ln): -3.23 ± 0.3
37 °C
  self-splicing fitness (ln): -2.13 ± 0.43

## UGCGAGCAAUAUUACGUCUU
30 °C
  self-splicing fitness (ln): -2.61 ± 0.16
37 °C
  self-splicing fitness (ln): -2.04 ± 0.16

## AGAGAGCAAUAUUACGACCU
30 °C
  self-splicing fitness (ln): -1.59 ± 0.18
37 °C
  self-splicing fitness (ln): -0.651 ± 0.26

## AAUGAGCAAUAUUACGUGAG
30 °C
  self-splicing fitness (ln): -3.5 ± 0.23
37 °C
  self-splicing fitness (ln): -1.78 ± 0.14

## CUCGAGCAAUAUUACGAGUA
30 °C
  self-splicing fitness (ln): -2.77 ± 0.24
37 °C
  self-splicing fitness (ln): -2.75 ± 0.31

## GAAGAGCAAUAUUACGUAUG
30 °C
  self-splicing fitness (ln): -3.52 ± 0.23
37 °C
  self-splicing fitness (ln): -2.16 ± 0.17

## UUGGAGCAAUAUUACGCGUC
30 °C
  self-splicing fitness (ln): -4.81 ± 0.29
37 °C
  self-splicing fitness (ln): -2.77 ± 0.24

## CGGCAGCAAUAUUACGCGUU
30 °C
  self-splicing fitness (ln): -4.11 ± 0.2
37 °C
  self-splicing fitness (ln): -2.75 ± 0.18

## GGCAAGCAAUAUUACGGACU
30 °C
  self-splicing fitness (ln): 0.0032 ± 0.071
37 °C
  self-splicing fitness (ln): 0.777 ± 0.096

## GCCAAGCAAUAUUACGCGGU
30 °C
  self-splicing fitness (ln): -3.73 ± 0.2
37 °C
  self-splicing fitness (ln): -3.25 ± 0.27

## AUAUAGCAAUAUUACGCAGG
30 °C
  self-splicing fitness (ln): -3.74 ± 0.31
37 °C
  self-splicing fitness (ln): -1.69 ± 0.23

## GCGCAGCAAUAUUACGUGAG
30 °C
  self-splicing fitness (ln): -0.213 ± 0.054
37 °C
  self-splicing fitness (ln): 0.445 ± 0.082

## GUACAGCAAUAUUACGUACA
30 °C
  self-splicing fitness (ln): -3 ± 0.15
37 °C
  self-splicing fitness (ln): -1.63 ± 0.098

## GAGCAGCAAUAUUACGCCCC
30 °C
  self-splicing fitness (ln): -2.24 ± 0.47

## ACUAAGCAAUAUUACGACAA
30 °C
  self-splicing fitness (ln): -1.63 ± 0.079
37 °C
  self-splicing fitness (ln): -0.52 ± 0.1

## CCUCAGCAAUAUUACGCGCA
30 °C
  self-splicing fitness (ln): -3.31 ± 0.27
37 °C
  self-splicing fitness (ln): -2.74 ± 0.23

## CCUCAGCAAUAUUACGGACC
37 °C
  self-splicing fitness (ln): -3.01 ± 0.31

## CAGGAGCAAUAUUACGGGGA
30 °C
  self-splicing fitness (ln): -5.01 ± 0.38
37 °C
  self-splicing fitness (ln): -3.47 ± 0.37

## AUCUAGCAAUAUUACGCGCC
30 °C
  self-splicing fitness (ln): -0.659 ± 0.17
37 °C
  self-splicing fitness (ln): -0.398 ± 0.16

## AAGUAGCAAUAUUACGUCCU
30 °C
  self-splicing fitness (ln): -0.128 ± 0.11
37 °C
  self-splicing fitness (ln): 0.294 ± 0.14

## ACCGAGCAAUAUUACGGAAG
30 °C
  self-splicing fitness (ln): -4.18 ± 0.34
37 °C
  self-splicing fitness (ln): -1.93 ± 0.43

## GCGCAGCAAUAUUACGGAAA
30 °C
  self-splicing fitness (ln): -1.97 ± 0.23
37 °C
  self-splicing fitness (ln): -0.698 ± 0.2
